Literature values, collected in article PMC11209288.

Molecular target: inositol 1,4,5-triphosphate receptor (IP3R) (Homo sapiens) (UniProt Q14643)
Chain of UniProt Q14643 (Q14643 whole entry): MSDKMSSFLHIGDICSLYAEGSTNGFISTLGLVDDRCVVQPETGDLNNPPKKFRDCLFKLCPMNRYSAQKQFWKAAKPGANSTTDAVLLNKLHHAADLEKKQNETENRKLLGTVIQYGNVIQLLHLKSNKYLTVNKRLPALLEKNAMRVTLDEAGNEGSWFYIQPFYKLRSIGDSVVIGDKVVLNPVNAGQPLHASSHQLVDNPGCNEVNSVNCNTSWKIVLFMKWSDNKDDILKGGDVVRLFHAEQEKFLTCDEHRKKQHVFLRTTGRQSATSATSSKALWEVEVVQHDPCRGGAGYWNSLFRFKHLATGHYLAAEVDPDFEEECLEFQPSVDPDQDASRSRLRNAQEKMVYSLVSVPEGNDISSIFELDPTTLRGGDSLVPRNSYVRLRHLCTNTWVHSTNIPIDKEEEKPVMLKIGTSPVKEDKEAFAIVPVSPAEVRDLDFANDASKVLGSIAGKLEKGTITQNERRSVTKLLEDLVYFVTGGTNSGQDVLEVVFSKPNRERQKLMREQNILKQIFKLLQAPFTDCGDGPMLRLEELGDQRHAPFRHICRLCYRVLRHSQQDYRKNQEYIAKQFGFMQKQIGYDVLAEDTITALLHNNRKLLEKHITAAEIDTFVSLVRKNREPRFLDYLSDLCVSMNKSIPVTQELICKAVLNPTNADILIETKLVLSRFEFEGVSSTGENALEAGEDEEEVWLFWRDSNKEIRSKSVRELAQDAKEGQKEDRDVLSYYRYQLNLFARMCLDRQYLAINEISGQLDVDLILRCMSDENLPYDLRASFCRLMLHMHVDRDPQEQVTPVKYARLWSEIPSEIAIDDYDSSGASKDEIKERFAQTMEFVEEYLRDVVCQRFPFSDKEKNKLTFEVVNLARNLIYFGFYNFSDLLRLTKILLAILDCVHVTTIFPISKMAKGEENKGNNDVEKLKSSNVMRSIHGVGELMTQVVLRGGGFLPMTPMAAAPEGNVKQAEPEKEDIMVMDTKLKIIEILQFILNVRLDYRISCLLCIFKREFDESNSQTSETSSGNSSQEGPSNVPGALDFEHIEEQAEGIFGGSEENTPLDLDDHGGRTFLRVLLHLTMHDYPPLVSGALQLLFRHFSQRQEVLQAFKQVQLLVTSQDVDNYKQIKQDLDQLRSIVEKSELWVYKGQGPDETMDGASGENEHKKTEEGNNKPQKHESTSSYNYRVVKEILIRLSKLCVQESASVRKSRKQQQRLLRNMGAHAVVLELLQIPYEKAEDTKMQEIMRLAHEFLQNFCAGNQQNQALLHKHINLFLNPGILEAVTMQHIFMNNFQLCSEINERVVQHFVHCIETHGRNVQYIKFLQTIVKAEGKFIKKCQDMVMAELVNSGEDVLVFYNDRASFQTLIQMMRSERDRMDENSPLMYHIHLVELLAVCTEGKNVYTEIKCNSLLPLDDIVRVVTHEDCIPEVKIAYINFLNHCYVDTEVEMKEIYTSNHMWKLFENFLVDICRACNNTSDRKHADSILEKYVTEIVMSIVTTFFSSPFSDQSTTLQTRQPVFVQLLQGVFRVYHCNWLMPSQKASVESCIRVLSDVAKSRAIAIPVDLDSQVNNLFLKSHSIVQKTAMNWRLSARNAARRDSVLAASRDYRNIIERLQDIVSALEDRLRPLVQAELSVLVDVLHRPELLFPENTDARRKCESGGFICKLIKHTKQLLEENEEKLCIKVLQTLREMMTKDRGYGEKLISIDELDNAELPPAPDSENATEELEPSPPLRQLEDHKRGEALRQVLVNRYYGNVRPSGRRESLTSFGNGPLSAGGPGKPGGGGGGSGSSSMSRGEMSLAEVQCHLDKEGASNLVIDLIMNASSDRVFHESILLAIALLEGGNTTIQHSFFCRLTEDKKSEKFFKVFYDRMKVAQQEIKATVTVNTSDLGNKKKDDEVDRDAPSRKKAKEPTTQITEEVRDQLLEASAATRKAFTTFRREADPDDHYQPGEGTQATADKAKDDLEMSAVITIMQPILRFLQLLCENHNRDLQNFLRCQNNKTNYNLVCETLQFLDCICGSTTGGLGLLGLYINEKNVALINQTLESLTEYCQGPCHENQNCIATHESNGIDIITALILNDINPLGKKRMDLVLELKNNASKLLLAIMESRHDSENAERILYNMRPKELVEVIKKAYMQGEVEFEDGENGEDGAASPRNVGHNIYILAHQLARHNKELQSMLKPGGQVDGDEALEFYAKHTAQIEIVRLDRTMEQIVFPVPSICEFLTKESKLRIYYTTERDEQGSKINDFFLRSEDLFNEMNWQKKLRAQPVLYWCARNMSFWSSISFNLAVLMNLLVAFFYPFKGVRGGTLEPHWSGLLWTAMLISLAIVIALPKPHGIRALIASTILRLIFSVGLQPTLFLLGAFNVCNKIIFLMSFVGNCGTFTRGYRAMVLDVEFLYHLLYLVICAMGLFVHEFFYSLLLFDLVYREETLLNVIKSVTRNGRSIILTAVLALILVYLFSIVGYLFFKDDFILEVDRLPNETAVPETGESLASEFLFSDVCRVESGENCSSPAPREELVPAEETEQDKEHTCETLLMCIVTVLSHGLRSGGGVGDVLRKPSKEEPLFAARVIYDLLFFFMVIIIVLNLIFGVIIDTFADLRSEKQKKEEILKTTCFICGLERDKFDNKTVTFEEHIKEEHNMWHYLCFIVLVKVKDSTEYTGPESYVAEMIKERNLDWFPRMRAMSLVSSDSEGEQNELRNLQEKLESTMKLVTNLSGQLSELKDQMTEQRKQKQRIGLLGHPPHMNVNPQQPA

In the case of Bok (from UniProt Q9UMX3), the Kd is listed as 0.065 µM.
